Our source for the PLA-positive cells among GFP+ cells (of 973 GFP+ cells) values is article PMC5173320.

The target of the experiment is GFP-FLN90 (short 90 kDa isoform of Drosophila filamin/cheerio with an N terminus EGFP tag) (Drosophila). The experiment is described as follows: proximity ligation; in situ PLA (Duolink) in HEK293T cells co-expressing V5-dPak with GFP-FLN90 or GFP alone; fixed with 4% paraformaldehyde about 40 hr after transfection; mouse anti-V5 and rabbit anti-GFP; GFP+ cells scored as PLA+ if they had more than three puncta.
Chain of GFP-FLN90 (short 90 kDa isoform of Drosophila filamin/cheerio with an N terminus EGFP tag) (Drosophila) (Q9VEN1 whole entry, canonical isoform): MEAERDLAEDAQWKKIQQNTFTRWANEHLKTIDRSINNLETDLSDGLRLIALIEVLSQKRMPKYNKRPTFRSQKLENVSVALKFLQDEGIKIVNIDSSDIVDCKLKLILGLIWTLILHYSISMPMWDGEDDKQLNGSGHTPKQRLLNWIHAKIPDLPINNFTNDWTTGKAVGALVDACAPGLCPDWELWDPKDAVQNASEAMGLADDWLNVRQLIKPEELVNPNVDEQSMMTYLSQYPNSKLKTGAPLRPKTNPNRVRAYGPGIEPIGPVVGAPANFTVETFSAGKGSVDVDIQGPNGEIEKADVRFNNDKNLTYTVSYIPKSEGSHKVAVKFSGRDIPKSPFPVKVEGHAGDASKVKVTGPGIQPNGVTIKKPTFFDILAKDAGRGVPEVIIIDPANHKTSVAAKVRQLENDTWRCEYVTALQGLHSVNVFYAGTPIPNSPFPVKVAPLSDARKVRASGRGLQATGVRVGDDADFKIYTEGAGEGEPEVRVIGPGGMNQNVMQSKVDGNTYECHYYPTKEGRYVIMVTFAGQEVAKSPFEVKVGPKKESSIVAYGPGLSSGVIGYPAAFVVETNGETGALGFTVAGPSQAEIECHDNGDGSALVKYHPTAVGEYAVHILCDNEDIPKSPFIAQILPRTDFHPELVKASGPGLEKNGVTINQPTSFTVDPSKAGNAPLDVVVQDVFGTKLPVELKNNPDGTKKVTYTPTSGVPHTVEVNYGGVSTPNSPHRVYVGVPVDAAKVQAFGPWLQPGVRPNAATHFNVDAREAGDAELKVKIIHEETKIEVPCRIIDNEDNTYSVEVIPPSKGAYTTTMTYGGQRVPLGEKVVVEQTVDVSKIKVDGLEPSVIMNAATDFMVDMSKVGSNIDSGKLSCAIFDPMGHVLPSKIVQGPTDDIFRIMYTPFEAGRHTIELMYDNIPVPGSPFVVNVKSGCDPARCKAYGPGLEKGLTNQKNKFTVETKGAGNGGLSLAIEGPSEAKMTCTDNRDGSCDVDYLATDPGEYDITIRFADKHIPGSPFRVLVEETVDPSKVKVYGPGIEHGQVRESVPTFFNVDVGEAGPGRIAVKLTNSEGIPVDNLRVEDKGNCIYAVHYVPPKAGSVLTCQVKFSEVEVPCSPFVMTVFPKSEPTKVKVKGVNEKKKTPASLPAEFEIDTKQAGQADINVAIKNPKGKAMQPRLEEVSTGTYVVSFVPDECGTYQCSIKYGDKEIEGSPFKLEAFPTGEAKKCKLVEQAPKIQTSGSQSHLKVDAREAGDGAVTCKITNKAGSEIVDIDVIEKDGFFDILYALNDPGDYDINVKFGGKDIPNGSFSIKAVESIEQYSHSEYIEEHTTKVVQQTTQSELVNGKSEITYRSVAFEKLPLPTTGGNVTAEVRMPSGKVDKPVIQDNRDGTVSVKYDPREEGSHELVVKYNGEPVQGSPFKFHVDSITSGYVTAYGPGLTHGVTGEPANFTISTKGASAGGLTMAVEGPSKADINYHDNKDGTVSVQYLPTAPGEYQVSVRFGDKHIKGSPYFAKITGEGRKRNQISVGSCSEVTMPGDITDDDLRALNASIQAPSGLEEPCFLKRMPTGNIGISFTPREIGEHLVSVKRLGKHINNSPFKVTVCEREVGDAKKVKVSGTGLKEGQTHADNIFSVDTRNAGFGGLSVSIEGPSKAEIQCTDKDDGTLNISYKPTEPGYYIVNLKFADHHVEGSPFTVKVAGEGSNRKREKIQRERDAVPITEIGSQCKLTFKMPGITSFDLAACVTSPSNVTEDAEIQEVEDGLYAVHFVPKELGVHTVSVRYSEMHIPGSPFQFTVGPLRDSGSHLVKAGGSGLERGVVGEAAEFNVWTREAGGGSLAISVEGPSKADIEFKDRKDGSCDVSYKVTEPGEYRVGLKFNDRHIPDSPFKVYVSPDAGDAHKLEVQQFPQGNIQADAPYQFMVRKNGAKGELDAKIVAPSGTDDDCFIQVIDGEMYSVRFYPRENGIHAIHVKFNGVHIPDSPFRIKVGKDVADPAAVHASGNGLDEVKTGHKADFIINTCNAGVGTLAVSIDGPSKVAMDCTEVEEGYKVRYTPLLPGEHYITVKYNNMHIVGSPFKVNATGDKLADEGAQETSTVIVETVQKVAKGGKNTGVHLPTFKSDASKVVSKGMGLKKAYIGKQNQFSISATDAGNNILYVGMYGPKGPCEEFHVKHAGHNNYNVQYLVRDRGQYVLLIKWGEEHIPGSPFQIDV

With “V5-dPak (Drosophila p21-activated kinase Pak with a V5 tag) (from UniProt Q9VI13 1-704) (enzyme)”, the PLA-positive cells among GFP+ cells (of 973 GFP+ cells) stood at 484.
